Among the data in patent US20220033441A1 (LEIDOS, published 2022) are IC50 values, retold here.

One assay addresses T1, Tag1-LAG3 protein (UniProt P18627 23-450, limits assumed).
T1 construct: Kit reagent (Cisbio); Tag1 is not identified
T1 sequence (looked up): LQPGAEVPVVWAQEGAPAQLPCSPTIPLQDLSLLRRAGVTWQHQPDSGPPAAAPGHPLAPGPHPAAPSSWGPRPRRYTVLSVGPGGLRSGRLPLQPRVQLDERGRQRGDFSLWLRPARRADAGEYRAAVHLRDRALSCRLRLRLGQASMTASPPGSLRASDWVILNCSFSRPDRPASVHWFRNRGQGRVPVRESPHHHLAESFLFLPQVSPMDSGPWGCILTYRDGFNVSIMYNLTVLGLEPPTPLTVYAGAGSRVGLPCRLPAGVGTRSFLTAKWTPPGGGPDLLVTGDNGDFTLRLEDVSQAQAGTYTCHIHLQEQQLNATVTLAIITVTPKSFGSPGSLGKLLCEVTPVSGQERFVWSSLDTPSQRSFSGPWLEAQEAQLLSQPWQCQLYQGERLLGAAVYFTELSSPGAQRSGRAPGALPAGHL
Briefly: HTRF (TR-FRET) competition, inhibition of LAG3:MHC-II binding. As for the experimental part: Anti-Tag1-Tb and anti-Tag2-XL665 antibodies were added and incubated for one hour, then simultaneous measurement of both […] cryptate and 665 nm acceptor emissions were read.
On the technique in general: TR-FRET usually uses a lanthanide donor and a delayed reading to cut background.

For assay [1], the target named is T2, human LAG3 (Human LAG3/FGL1 TR-FRET Binding Assay, BPS Bioscience) (human, UniProt P18627 23-450, limits assumed).
T2 construct: Kit reagent (BPS Bioscience); construct not described
T2 sequence (looked up): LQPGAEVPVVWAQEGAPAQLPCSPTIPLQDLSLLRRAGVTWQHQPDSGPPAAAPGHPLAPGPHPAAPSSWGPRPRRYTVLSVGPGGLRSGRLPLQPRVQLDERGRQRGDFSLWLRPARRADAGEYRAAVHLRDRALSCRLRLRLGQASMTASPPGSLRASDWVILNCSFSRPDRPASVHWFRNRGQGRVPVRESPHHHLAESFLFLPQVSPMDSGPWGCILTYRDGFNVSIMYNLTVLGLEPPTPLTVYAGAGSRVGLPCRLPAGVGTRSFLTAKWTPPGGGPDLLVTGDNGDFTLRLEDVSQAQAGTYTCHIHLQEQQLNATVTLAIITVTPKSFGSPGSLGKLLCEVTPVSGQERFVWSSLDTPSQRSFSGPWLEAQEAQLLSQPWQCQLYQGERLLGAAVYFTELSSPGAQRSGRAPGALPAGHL
Put plainly: TR-FRET competition, inhibition of LAG3:FGL1 binding. How it is done:
Reaction mixes were incubated 1 hr at RT before development. After development, plate was read in a Tecan M1000 TR-FRET instrument.

B1: peptide 68 (peptide)
peptide: EDKAPWWQLDMEFEFRLDRV
notes: 20-mer peptide
Broadly, the IC50 is the concentration that gives 50% inhibition. A high value points to weaker potency. For the molecule B1, the results for the IC50 (with Tag1-LAG3 protein; in assay [1]) were 2.94 µM and approximately 21 µM, respectively.

B2: peptide 69 (peptide)
peptide: AEFDHFDVGQTLDIASWDSY
notes: 20-mer peptide
B2 gave an IC50 in assay [1] of 3.3 µM.

B3: peptide 41 (peptide)
peptide: TVDADGDLYFDMEEGVLVFM
notes: 20-mer peptide
The molecule B3 registered an IC50 in assay [1] of 9.2 µM.

B4: peptide 155 (peptide)
peptide: SLPYSNIYIELDSGYWNSES
notes: 20-mer peptide
Turning to B4, the IC50 with Tag1-LAG3 protein amounted to 0.13 µM.

B5: Peptide LG56 (peptide)
peptide: HIQNWSYWLNQDMMNQQVWKS
notes: peptide positive control in the LAG3/FGL1 assay
Take B5: in assay [1], the IC50 amounted to 14 µM. This counts as double-digit micromolar.

B6: peptide 11 (peptide)
peptide: RERGGDDFAQDDYYVTIFYR
notes: 20-mer peptide
In the case of B6, the IC50 with Tag1-LAG3 protein was found to be 0.353 µM.

B7: Peptide 93 (peptide)
peptide: RVPAPVKEQVQKQYPNAGAI
notes: also called Low Activity Peptide
On to B7, for which the IC50 with Tag1-LAG3 protein was 63 µM.

B8: peptide 141 (peptide)
peptide: GGVAIFLALFGGMVSSWEWD
notes: 20-mer peptide
B8 yielded an IC50 with Tag1-LAG3 protein of 6.69 µM.

B9: peptide 154 (peptide)
peptide: EHNREQVLEVMYSFQVNDYF
notes: 20-mer peptide
B9 had an IC50 in assay [1] of 7.2 µM. That is a single-digit micromolar value.

B10: peptide 16 (peptide)
peptide: QGSTSGWGFGAMYELTYDVY
notes: 20-mer peptide
As for B10, the IC50 in the assay with Tag1-LAG3 protein is 0.22 µM. In other words, the sub-micromolar range.

B11: peptide 62 (peptide)
peptide: LAGHYHYLTAGSQDIYEYND
notes: 20-mer peptide
The molecule B11 displayed an IC50 with Tag1-LAG3 protein of 0.308 µM.

B12: peptide 6 (peptide)
peptide: ITMWGYDTDEDDNLVIYLTD
notes: 20-mer peptide
Turning to B12, the IC50 in assay [1] was 2.6 µM.

B13: peptide 146 (peptide)
peptide: VFRMDWDEKEVRLYADDILL
notes: 20-mer peptide
As to B13, the IC50 in the assay with Tag1-LAG3 protein worked out at 0.199 µM; in assay [1] it was 7.2 µM.

B14: Peptide LG11 (peptide)
peptide: SAPWEPLHWPEDWWQGTGEW
notes: positive peptide control in the LAG3/MHC-II assay
With B14, the IC50 with Tag1-LAG3 protein came out at 18.4 µM.

B15: peptide 115 (peptide)
peptide: RTDRYTLSYIWTSDEWMLFD
notes: 20-mer peptide
Consider B15, for which the figures for the IC50 (with Tag1-LAG3 protein; in assay [1]) were 0.154 µM and 9.1 µM, respectively.
